In patent US20260207798A1, “CYCLIC PEPTIDES AS PET IMAGING AGENTS OF GRANZYME B” (priority 2022, published 2026):
Bridge positions count the residues as written; N and C are the ends.

B1: Compound 24a (peptide)
peptide: {CH2CO}-FNFEDQSVDTWQPCG-NH2
modifications: thioether N-14
SMILES: CC(C)[C@@H]1NC(=O)[C@H](CO)NC(=O)[C@H](CCC(N)=O)NC(=O)[C@H](CC(=O)O)NC(=O)[C@H](CCC(=O)O)NC(=O)[C@H](Cc2ccccc2)NC(=O)[C@H](CC(N)=O)NC(=O)[C@H](Cc2ccccc2)NC(=O)CSC[C@@H](C(=O)NCC(N)=O)NC(=O)[C@@H]2CCCN2C(=O)[C@H](CCC(N)=O)NC(=O)[C@H](Cc2c[nH]c3ccccc23)NC(=O)[C@H]([C@@H](C)O)NC(=O)[C@H](CC(=O)O)NC1=O
B2: Compound 34a (peptide)
peptide: {CH2CO}-FNFEDQSAKTWQPCG-NH2
modifications: thioether N-14
SMILES: C[C@@H]1NC(=O)[C@H](CO)NC(=O)[C@H](CCC(N)=O)NC(=O)[C@H](CC(=O)O)NC(=O)[C@H](CCC(=O)O)NC(=O)[C@H](Cc2ccccc2)NC(=O)[C@H](CC(N)=O)NC(=O)[C@H](Cc2ccccc2)NC(=O)CSC[C@@H](C(=O)NCC(N)=O)NC(=O)[C@@H]2CCCN2C(=O)[C@H](CCC(N)=O)NC(=O)[C@H](Cc2c[nH]c3ccccc23)NC(=O)[C@H]([C@@H](C)O)NC(=O)[C@H](CCCCN)NC1=O
B3: Compound 33a (peptide)
peptide: {CH2CO}-FNFEDQSKDTWQPCG-NH2
modifications: thioether N-14
SMILES: C[C@@H](O)[C@@H]1NC(=O)[C@H](CC(=O)O)NC(=O)[C@H](CCCCN)NC(=O)[C@H](CO)NC(=O)[C@H](CCC(N)=O)NC(=O)[C@H](CC(=O)O)NC(=O)[C@H](CCC(=O)O)NC(=O)[C@H](Cc2ccccc2)NC(=O)[C@H](CC(N)=O)NC(=O)[C@H](Cc2ccccc2)NC(=O)CSC[C@@H](C(=O)NCC(N)=O)NC(=O)[C@@H]2CCCN2C(=O)[C@H](CCC(N)=O)NC(=O)[C@H](Cc2c[nH]c3ccccc23)NC1=O
B4: Compound 31a (peptide)
peptide: {CH2CO}-FNFEDQSWDTWQPCG-NH2
modifications: thioether N-14
SMILES: C[C@@H](O)[C@@H]1NC(=O)[C@H](CC(=O)O)NC(=O)[C@H](Cc2c[nH]c3ccccc23)NC(=O)[C@H](CO)NC(=O)[C@H](CCC(N)=O)NC(=O)[C@H](CC(=O)O)NC(=O)[C@H](CCC(=O)O)NC(=O)[C@H](Cc2ccccc2)NC(=O)[C@H](CC(N)=O)NC(=O)[C@H](Cc2ccccc2)NC(=O)CSC[C@@H](C(=O)NCC(N)=O)NC(=O)[C@@H]2CCCN2C(=O)[C@H](CCC(N)=O)NC(=O)[C@H](Cc2c[nH]c3ccccc23)NC1=O
B5: Compound 35a (peptide)
peptide: {CH2CO}-FNFEDQSAWTWQPCG-NH2
modifications: thioether N-14
SMILES: C[C@@H]1NC(=O)[C@H](CO)NC(=O)[C@H](CCC(N)=O)NC(=O)[C@H](CC(=O)O)NC(=O)[C@H](CCC(=O)O)NC(=O)[C@H](Cc2ccccc2)NC(=O)[C@H](CC(N)=O)NC(=O)[C@H](Cc2ccccc2)NC(=O)CSC[C@@H](C(=O)NCC(N)=O)NC(=O)[C@@H]2CCCN2C(=O)[C@H](CCC(N)=O)NC(=O)[C@H](Cc2c[nH]c3ccccc23)NC(=O)[C@H]([C@@H](C)O)NC(=O)[C@H](Cc2c[nH]c3ccccc23)NC1=O
B6: Compound 30a (peptide)
peptide: {CH2CO}-FNFEDQGADTWQPCG-NH2
modifications: thioether N-14
SMILES: C[C@@H]1NC(=O)CNC(=O)[C@H](CCC(N)=O)NC(=O)[C@H](CC(=O)O)NC(=O)[C@H](CCC(=O)O)NC(=O)[C@H](Cc2ccccc2)NC(=O)[C@H](CC(N)=O)NC(=O)[C@H](Cc2ccccc2)NC(=O)CSC[C@@H](C(=O)NCC(N)=O)NC(=O)[C@@H]2CCCN2C(=O)[C@H](CCC(N)=O)NC(=O)[C@H](Cc2c[nH]c3ccccc23)NC(=O)[C@H]([C@@H](C)O)NC(=O)[C@H](CC(=O)O)NC1=O
B7: Compound 39a (peptide)
peptide: {CH2CO}-YNFEDQSPDTWQPCG-NH2
modifications: thioether N-14
SMILES: C[C@@H](O)[C@@H]1NC(=O)[C@H](CC(=O)O)NC(=O)[C@@H]2CCCN2C(=O)[C@H](CO)NC(=O)[C@H](CCC(N)=O)NC(=O)[C@H](CC(=O)O)NC(=O)[C@H](CCC(=O)O)NC(=O)[C@H](Cc2ccccc2)NC(=O)[C@H](CC(N)=O)NC(=O)[C@H](Cc2ccc(O)cc2)NC(=O)CSC[C@@H](C(=O)NCC(N)=O)NC(=O)[C@@H]2CCCN2C(=O)[C@H](CCC(N)=O)NC(=O)[C@H](Cc2c[nH]c3ccccc23)NC1=O
B8: Compound 37a (peptide)
peptide: {CH2CO}-FNFEDQSAHTWQPCG-NH2
modifications: thioether N-14
SMILES: C[C@@H]1NC(=O)[C@H](CO)NC(=O)[C@H](CCC(N)=O)NC(=O)[C@H](CC(=O)O)NC(=O)[C@H](CCC(=O)O)NC(=O)[C@H](Cc2ccccc2)NC(=O)[C@H](CC(N)=O)NC(=O)[C@H](Cc2ccccc2)NC(=O)CSC[C@@H](C(=O)NCC(N)=O)NC(=O)[C@@H]2CCCN2C(=O)[C@H](CCC(N)=O)NC(=O)[C@H](Cc2c[nH]c3ccccc23)NC(=O)[C@H]([C@@H](C)O)NC(=O)[C@H](Cc2c[nH]cn2)NC1=O
B9: Compound 32a (peptide)
peptide: {CH2CO}-FNFEDQSRDTWQPCG-NH2
modifications: thioether N-14
SMILES: C[C@@H](O)[C@@H]1NC(=O)[C@H](CC(=O)O)NC(=O)[C@H](CCCNC(=N)N)NC(=O)[C@H](CO)NC(=O)[C@H](CCC(N)=O)NC(=O)[C@H](CC(=O)O)NC(=O)[C@H](CCC(=O)O)NC(=O)[C@H](Cc2ccccc2)NC(=O)[C@H](CC(N)=O)NC(=O)[C@H](Cc2ccccc2)NC(=O)CSC[C@@H](C(=O)NCC(N)=O)NC(=O)[C@@H]2CCCN2C(=O)[C@H](CCC(N)=O)NC(=O)[C@H](Cc2c[nH]c3ccccc23)NC1=O
B10: Compound 29a (peptide)
peptide: {CH2CO}-FNFEDQNADTWQPCG-NH2
modifications: thioether N-14
SMILES: C[C@@H]1NC(=O)[C@H](CC(N)=O)NC(=O)[C@H](CCC(N)=O)NC(=O)[C@H](CC(=O)O)NC(=O)[C@H](CCC(=O)O)NC(=O)[C@H](Cc2ccccc2)NC(=O)[C@H](CC(N)=O)NC(=O)[C@H](Cc2ccccc2)NC(=O)CSC[C@@H](C(=O)NCC(N)=O)NC(=O)[C@@H]2CCCN2C(=O)[C@H](CCC(N)=O)NC(=O)[C@H](Cc2c[nH]c3ccccc23)NC(=O)[C@H]([C@@H](C)O)NC(=O)[C@H](CC(=O)O)NC1=O
B11: Compound 28a (peptide)
peptide: {CH2CO}-FNFEDQSARTWQPCG-NH2
modifications: thioether N-14
SMILES: C[C@@H]1NC(=O)[C@H](CO)NC(=O)[C@H](CCC(N)=O)NC(=O)[C@H](CC(=O)O)NC(=O)[C@H](CCC(=O)O)NC(=O)[C@H](Cc2ccccc2)NC(=O)[C@H](CC(N)=O)NC(=O)[C@H](Cc2ccccc2)NC(=O)CSC[C@@H](C(=O)NCC(N)=O)NC(=O)[C@@H]2CCCN2C(=O)[C@H](CCC(N)=O)NC(=O)[C@H](Cc2c[nH]c3ccccc23)NC(=O)[C@H]([C@@H](C)O)NC(=O)[C@H](CCCNC(=N)N)NC1=O
B12: Compound 27a (peptide)
peptide: {CH2CO}-FNFEDQAADTWQPCG-NH2
modifications: thioether N-14
SMILES: C[C@@H]1NC(=O)[C@H](C)NC(=O)[C@H](CCC(N)=O)NC(=O)[C@H](CC(=O)O)NC(=O)[C@H](CCC(=O)O)NC(=O)[C@H](Cc2ccccc2)NC(=O)[C@H](CC(N)=O)NC(=O)[C@H](Cc2ccccc2)NC(=O)CSC[C@@H](C(=O)NCC(N)=O)NC(=O)[C@@H]2CCCN2C(=O)[C@H](CCC(N)=O)NC(=O)[C@H](Cc2c[nH]c3ccccc23)NC(=O)[C@H]([C@@H](C)O)NC(=O)[C@H](CC(=O)O)NC1=O
B13: Compound 36a (peptide)
peptide: {CH2CO}-FNFEDQSAYTWQPCG-NH2
modifications: thioether N-14
SMILES: C[C@@H]1NC(=O)[C@H](CO)NC(=O)[C@H](CCC(N)=O)NC(=O)[C@H](CC(=O)O)NC(=O)[C@H](CCC(=O)O)NC(=O)[C@H](Cc2ccccc2)NC(=O)[C@H](CC(N)=O)NC(=O)[C@H](Cc2ccccc2)NC(=O)CSC[C@@H](C(=O)NCC(N)=O)NC(=O)[C@@H]2CCCN2C(=O)[C@H](CCC(N)=O)NC(=O)[C@H](Cc2c[nH]c3ccccc23)NC(=O)[C@H]([C@@H](C)O)NC(=O)[C@H](Cc2ccc(O)cc2)NC1=O

What follows are binders tested against T1, human Granzyme B (human, UniProt P10144 21-247) (assay: SPR, Biacore 8k+, hGranzyme B captured on SA chip, single cycle kinetics, 1:1 model).
T1 construct: Captured on a Series S Streptavidin chip for SPR; also called hGranzyme B; GzmB
T1 sequence (P10144 21-247 limits assumed): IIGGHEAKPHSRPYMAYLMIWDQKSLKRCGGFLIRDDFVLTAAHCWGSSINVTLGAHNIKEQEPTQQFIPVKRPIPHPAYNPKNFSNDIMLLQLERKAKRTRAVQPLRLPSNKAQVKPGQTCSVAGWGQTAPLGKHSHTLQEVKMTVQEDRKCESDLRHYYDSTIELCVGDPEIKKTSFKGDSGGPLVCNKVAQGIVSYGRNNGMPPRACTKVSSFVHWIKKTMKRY
Description: The kinetics of test peptide binding to human Granzyme B (hGranzyme B) was determined by SPR. All experiments were performed at 25° C. using the Biacore 8k+ instrument (Cytiva, Marlborough, MA). The Biacore 8k+ Insight Evaluation Software Version 3.0 was used to fit the data with a 1:1 binding model to determine the association rate constant kₐ (M⁻¹s⁻¹, where “M” ~equals molar and “s” ~equals seconds) and the dissociation rate constant kd (s⁻¹). These rate constants were used to calculate the equilibrium dissociation constant. KD (M)=kd/kₐ.
To measure the binding kinetics of peptides of interest, surfaces were prepared by a capture method to a Series S Streptavidin (SA) chip using a 1×HBS-EP+ running buffer (Cytiva). hGranzyme B was diluted to 10 μg/mL in IX HBS-EP+ and flowed over spot 2 of each flow cell on the chip at a flow rate of 10 ul/min for 20 s to achieve a level of capture of ~1100 RU. An unmodified spot 1 of each flow cell was used as a matrix binding control or reference surface. Binding kinetics were measured using single cycle kinetics at 25° C. by injecting 5 concentrations with 3-fold serial dilutions of test peptides from 0.01 μM to 1 μM. Compound dilutions were performed manually in a running buffer containing 1×HBS-EP+(Cytiva), and a final concentration of 2% DMSO. The interaction analyses over hGranzyme B, were performed using a 120 s association time and a 900 s dissociation time. All experiments were conducted at a flow rate of 50 μL/min with a data collection rate of 10 Hz.
Peptide dilution series included 2 zero concentration points (no compound) which were averaged and subtracted from the peptide concentration injection as DMSO control responses. Binding data acquired from the reference surface (matrix binding control) were subtracted from the binding data for hGranzyme B surface on the chip to determine specific binding. Next, the association phase data were solvent corrected to account for any signal fluctuation throughout the experiment due to subtle DMSO concentration differences. Corrected response data were analyzed using the Biacore 8k+ Evaluation Software Version 3.0 according to the manufacturer. SPR data for representative compounds of the disclosure are found in Table 8.

Row | Kd | Binder
1 | 28.8 nM | B1
2 | 29.3 nM | B2
3 | 33.9 nM | B3
4 | 23.3 nM | B4
5 | 24 nM | B5
6 | 25.9 nM | B6
7 | 1.1 nM | B7
8 | 19.1 nM | B8
9 | 30.3 nM | B9
10 | 31.4 nM | B10
11 | 18 nM | B11
12 | 10.9 nM | B12
13 | 24.2 nM | B13
